Laboratory results: patent publication US20200223930A1

Target: CD33 (UniProt P20138)
Assay: flow cytometry, hybridoma supernatant on EL4-CD33 cells, rat anti-mouse IgG APC

Chain of UniProt P20138 (P20138 18-364 limits assumed): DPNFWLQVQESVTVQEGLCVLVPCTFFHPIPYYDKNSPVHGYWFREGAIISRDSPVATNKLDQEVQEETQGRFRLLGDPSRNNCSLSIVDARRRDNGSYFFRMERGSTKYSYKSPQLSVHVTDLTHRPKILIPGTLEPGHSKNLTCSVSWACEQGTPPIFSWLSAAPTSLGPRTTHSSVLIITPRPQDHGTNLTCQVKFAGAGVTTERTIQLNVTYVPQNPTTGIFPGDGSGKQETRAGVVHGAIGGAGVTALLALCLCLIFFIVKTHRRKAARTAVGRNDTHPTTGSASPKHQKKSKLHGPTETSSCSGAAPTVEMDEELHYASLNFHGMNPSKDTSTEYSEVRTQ

CD33/APC+: 52%
B1: 3F5 (antibody, V domains shown)
VH: EVQLQQSGPELVKPGSSVKISCKASGYTFTDYNMDWVKQSHGKSLEWIGTINPNNGGTSYNQKFKGKATLTVDKSSSTAYMELRSLTSEDSAVYYCARKGYGGNYDYFDYWGQGTTLTVSS
VL: DILLTQSPAILSVSPGERVSFSCRASQSIGTSIHWYQQRTNGSPRLLIKYASESISGIPSRFSGSGSGTDFTLSINSVESEDIADYYCQQSNSWPYTFGGGTKLEIK
